Data published in the domain aggregation screens of Martell et al. (2025).

Experiment: soluble fraction after stress (log2 fold change); higher = more stays soluble; pooled small domains, quantitative proteomics
Conditions: stress: 75 degC
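Note: 20 min heating vs room temperature control held 20 min.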

Sequence	soluble fraction (log2)
HMLDRNKLNELDAYIESFEDKPSHLIMILHRAQGLFGYLPKELQIYVAEKTGVPAAKVYGVVTFYSFFTMK	-3.42
HMLEDDTVNTAEGIKIGDSFAAVTKAYGTDYVAAGNTYAYSKDKMTLTFVMNNDKVSTISYSLLTS	0.136
HMLEDYFKEEEYTEVLKIPKEYIKGFQYYLIEDAEFVNALRAKNKTMTLFLAKKLASDYIEIIRREQ	-2.39
HMLEIGRYNTLTVLRKVDFGYYLDGLDYGDILMPAKYAATELEAGDEVDVFIYLDSSEKLIATTETPIAQ	-4.06
HMLEIQENFQNILKRMELSLSPLERRVLALYLSGYERSEIPEKTGIPLKTFDNALHRVRNKMK	-2.36
HMLEKDIGKAITILRKSYQLSISAFSMRTGYSRVHISEVESGKRKATDELISVIRNVFHLDSNWPF	-1.52
HMLELDRTNLLGVFGSKSNPYALIMLSNGEMLKLSIGDQFLGWRVYAIDQTTVHVQNGKNQEILRIP	-1.36
HMLELLSMEDIQRTRVGDLIATVRQVDRQHALVLDRDPETGKPAVRGIFSLSQISLRLGLNI	-2.17
HMLEPGIAVLKTLMSQYRLGVADLPELGSKSNVSKLLNAVEGKKLTRQHIEALSKRFAVSPALF	-0.148
HMLEPGQKVKSVVVDISGDLIYIDLGGKTEGVVELKEFYDEAGEYHVKPGDEIEVFFVSVQNGLKRFTT	-0.0603
HMLEQISDPEVLSKLADEVLSQQEKMVMDYRKGKTAAFQGLMGQMMKKTKGKGNPAKIQEILAQKL	0.401
HMLEQLTPRELKVLQALAQGRQNKEIAAQLVISERTVKFHVSAILSKLNVGNRTEAVTVAAQRGLISL	-1.6
HMLEQSYYEKTDEIIELHGAKASSLIPVMQDVQAEYRYLPGELLSYIADKLGIPLAKAYSVATFYENFS	-0.282
HMLERKFGTSLEIKSLSKFLIENNYKKNAKYLNKLIQVLGTRSENRIIKTFFKQFPEIENIFRNQL	-0.612
HMLETADDAKRFLGAIISEKKAENLLRVYPDIIERIVAGKPVDLSLVKGIKQKTFDKLRQKVISHYSMY	-0.0346
HMLETHRRRQIILSLLRESGMLDVDEVAARLVVSPNTIRNDFNALAAEGLLRRIRGGATLAEP	-1.45

Sequence	soluble fraction (log2)
HMLFKNASGTVVSRIQSQVDGQINIRTGSGNAPDYAFVAKPDGAVELYHNGTKQFETGSSGVLLP	-0.406
HMLFQQPATMIGKIGVAMSDLRPSGKIKIDDEWYDGQSEGDYILKGQEIIVVQVMNAYLIVRL	0.0841
HMLFRGNGFNTLYDKQLRITQQGEFKDGRLWDGKYYRYSKAGELVRIEIYEQGRYAGNGVITDEDKA	-1.06
HMLFSDSDLKSLLDKDISYVIEMYKAASKEQKRIISDMVAQKVMEKKYIDANILIQLGELTGINYMDL	-1.33
HMLFSEKLKQAMQDLHLNQIQVVGLTGKSKGSISQYISGKQVPSEATQRDIAISLGLEENYFSKK	0.701
HMLFYSDLVRLISFAEATLGKNEFETWYMSHHQGMKYTEIAIALGISVRTVEDRIARTKNHFRKI	-0.68
HMLGAGFDSDLTARENIFLNGALLGHSRAVMRGYYDDIVNFAELHDFMDVPVKNFSSGMTSRLAFSIATIG	0.236
HMLGARIAALRRQAGMNQGELAKKLGISPSTVGMYEQGRREPSAEMLVRLAEAFSVSTDFLLT	-1.1
HMLGERIRRLRKEMGMSVTELARRVKTSPSYISEIEKGEKTPSLNLLVRIASELRTGIDYLTGL	-0.922
HMLGIGANVQKIAQERKISLKELSRRAGIPYTTIYNMVKRDSSRVSPENLQKLADALGVEIGKLYG	-0.24
HMLGSQQAYTDALRLTGLPVDIEVIESDRLPFLIPMRYSLDQHLIEVNVRYPDTRAIRVQQMVEELFHA	-0.631
HMLGVKKFGGEAVIAGNIILRQRGTKWITGSNVGIGKDHTLFAKIEGYVVFERMRGRDGQQQISIYP	0.0286
HMLGYQALASAFRSKVEAGIWPIGEAIPSEARLSKEYGVAVGTIRQAIAELAEEGILIKRHGKSTMVSSG	-1.49
HMLHEFSGVVVSILADTGPSTLKQLHRSLISSDVKMDEKELMQILDEALSSGSVTSHRKGRYLYYSANK	-1.71
HMLHIKKGDTVIVNAGESKGQQGKVLEVLVGKERAIVEGVNMVSKHTKPNAKNPQGGIVKKEAPIHISNLQ	0.154
